Experimental findings from ChEMBL document CHEMBL1629679, “Extended-spectrum cephalosporinases in Pseudomonas aeruginosa” (2009) are described below.

Where a chain is given by its changes, count along the chain named.

For orientation: Km means the concentration of substrate that gives half-maximal velocity. For orientation: kcat means the maximal rate divided by the concentration of active sites. The term kcat/Km denotes the turnover number divided by the Michaelis constant.

Substrate in series [1]: CCN1CCN(C(=O)N[C@@H](C(=O)N[C@@H]2C(=O)N3[C@@H]2SC(C)(C)[C@@H]3C(=O)O)c2ccccc2)C(=O)C1=O
Briefly: (§1) Activity at Pseudomonas aeruginosa PDC-5 by spectrophotometer.

Substrate in series [2]: CC(C)(O/N=C(\C(=O)N[C@@H]1C(=O)N2C(C(=O)[O-])=C(C[n+]3ccccc3)CS[C@H]12)c1csc(N)n1)C(=O)O
The description is as §1.

Substrate in series [3]: CO/N=C(\C(=O)N[C@@H]1C(=O)N2C(C(=O)O)=C(COC(C)=O)CS[C@H]12)c1csc(N)n1
The series is described as §1.

Substrate in series [4]: CC1(C)S[C@@H]2[C@H](NC(=O)Cc3ccccc3)C(=O)N2[C@H]1C(=O)O
The series is described as §1.

Substrate in series [5]: C[C@@H](O)[C@H]1C(=O)N2C(C(=O)O)=C(SCCNC=N)C[C@H]12
Described as §1.

Substrate in series [6]: CO/N=C(\C(=O)N[C@@H]1C(=O)N2C(C(=O)[O-])=C(C[N+]3(C)CCCC3)CS[C@H]12)c1csc(N)n1
Described as §1.

Substrate in series [7]: CCN1CCN(C(=O)N[C@@H](C(=O)N[C@@H]2C(=O)N3[C@@H]2SC(C)(C)[C@@H]3C(=O)O)c2ccccc2)C(=O)C1=O
Briefly: (§2) Ratio of Kcat to Km for Pseudomonas aeruginosa PDC-5 by spectrophotometer.

Substrate in series [8]: CC(C)(O/N=C(\C(=O)N[C@@H]1C(=O)N2C(C(=O)[O-])=C(C[n+]3ccccc3)CS[C@H]12)c1csc(N)n1)C(=O)O
The description is as §2.

Substrate in series [9]: CO/N=C(\C(=O)N[C@@H]1C(=O)N2C(C(=O)O)=C(COC(C)=O)CS[C@H]12)c1csc(N)n1
The series is described as §2.

Substrate in series [10]: CC1(C)S[C@@H]2[C@H](NC(=O)Cc3ccccc3)C(=O)N2[C@H]1C(=O)O
The description is as §2.

Substrate in series [11]: C[C@@H](O)[C@H]1C(=O)N2C(C(=O)O)=C(SCCNC=N)C[C@H]12
The series is described as §2.

Substrate in series [12]: CCN1CCN(C(=O)N[C@@H](C(=O)N[C@@H]2C(=O)N3[C@@H]2SC(C)(C)[C@@H]3C(=O)O)c2ccccc2)C(=O)C1=O
Briefly: (§3) Activity at Pseudomonas aeruginosa PDC-1 by spectrophotometer.

Substrate in series [13]: CC(C)(O/N=C(\C(=O)N[C@@H]1C(=O)N2C(C(=O)[O-])=C(C[n+]3ccccc3)CS[C@H]12)c1csc(N)n1)C(=O)O
The series is described as §3.

Substrate in series [14]: CO/N=C(\C(=O)N[C@@H]1C(=O)N2C(C(=O)O)=C(COC(C)=O)CS[C@H]12)c1csc(N)n1
The description is as §3.

Substrate in series [15]: CC1(C)S[C@@H]2[C@H](NC(=O)Cc3ccccc3)C(=O)N2[C@H]1C(=O)O
The description is as §3.

Substrate in series [16]: C[C@@H](O)[C@H]1C(=O)N2C(C(=O)O)=C(SCCNC=N)C[C@H]12
Described as §3.

Substrate in series [17]: CO/N=C(\C(=O)N[C@@H]1C(=O)N2C(C(=O)[O-])=C(C[N+]3(C)CCCC3)CS[C@H]12)c1csc(N)n1
The description is as §3.

Substrate in series [18]: CCN1CCN(C(=O)N[C@@H](C(=O)N[C@@H]2C(=O)N3[C@@H]2SC(C)(C)[C@@H]3C(=O)O)c2ccccc2)C(=O)C1=O
Briefly: (§4) Ratio of Kcat to Km for Pseudomonas aeruginosa PDC-1 by spectrophotometer.

Substrate in series [19]: CC(C)(O/N=C(\C(=O)N[C@@H]1C(=O)N2C(C(=O)[O-])=C(C[n+]3ccccc3)CS[C@H]12)c1csc(N)n1)C(=O)O
The series is described as §4.

Substrate in series [20]: CO/N=C(\C(=O)N[C@@H]1C(=O)N2C(C(=O)O)=C(COC(C)=O)CS[C@H]12)c1csc(N)n1
Described as §4.

Substrate in series [21]: CC1(C)S[C@@H]2[C@H](NC(=O)Cc3ccccc3)C(=O)N2[C@H]1C(=O)O
The series is described as §4.

Substrate in series [22]: C[C@@H](O)[C@H]1C(=O)N2C(C(=O)O)=C(SCCNC=N)C[C@H]12
The series is described as §4.

Substrate in series [23]: CO/N=C(\C(=O)N[C@@H]1C(=O)N2C(C(=O)[O-])=C(C[N+]3(C)CCCC3)CS[C@H]12)c1csc(N)n1
The series is described as §4.

B1: Beta-lactamase (Pseudomonas aeruginosa), Q8RL90 (protein)
chain: MRDTRFPCLCGIAASTLLFATTPAIAGEAPADRLKALVDAAVQPVMKANDIPGLAVAISLKGEPHYFSYGLASKEDGRQVTPETLFEIGSVSKTFTATLAGYALAQDKMRLDDRASQHWPALQGSRFDGISLLDLATYTAGGLPLQFPDSVQKDQAQIRDYYRQWQPTYAPGSQRLYSNPSIGLFGYLAARSLGQPFERLMEQQVFPALGLEQTHLDVPEAALAQYAQGYGKDDRPLRVGPGPLDAEGYGVKTSAADLLRFVDANLHPERLDRPWAQALDATHRGYYKVGDMTQGLGWEAYDWPISLKRLQAGNSTPMALQPHRIARLPAPQALEGQRLLNKTGSTNGFGAYVAFVPGRDLGLVILANRNYPNAERVKIAYAILSGLEQQGKVPLKR
As to B1, the Km turned out to be 40 µM in series [1]; 30 µM in series [2]; 5 µM in [3]; 35 µM in [4]; 15 µM in series [5]; 1700 µM in series [6]. In addition, the kcat in series [1] came to 5 s⁻¹; in series [2], 0.015 s⁻¹; in series [3], 0.1 s⁻¹; in [4], 30 s⁻¹; in series [5] it was 0.1 s⁻¹. In addition, the kcat/Km in series [7] turned out to be 125000 M⁻¹ s⁻¹; in series [8] it was 500000 M⁻¹ s⁻¹; in series [9], 20000 M⁻¹ s⁻¹; in series [10] it was 860000 M⁻¹ s⁻¹; in series [11] it was 6e+06 M⁻¹ s⁻¹.

B2: Beta-lactamase (Pseudomonas aeruginosa (strain ATCC 15692 / PAO1 / 1C / PRS 101 / LMG12228)), P24735 (protein)
chain: B1 chain with Q79R, A105T
Take B2: the Km in series [12] turned out to be 100 µM; in series [14], 6 µM; in series [15], 35 µM; in series [16] it was 20 µM; in series [17], 800 µM. In addition, the kcat in series [12] was 2 s⁻¹; in [13], 0.004 s⁻¹; in series [14] it was 0.02 s⁻¹; in series [16], 0.01 s⁻¹; in [17] it was 0.08 s⁻¹. Further, the kcat/Km in series [18] is 50000 M⁻¹ s⁻¹; in series [19] it was 200000 M⁻¹ s⁻¹; in [20] it was 3000 M⁻¹ s⁻¹; in [21] it was 430000 M⁻¹ s⁻¹; in [22], 500000 M⁻¹ s⁻¹; in series [23], 100000 M⁻¹ s⁻¹.
